Data on seven molecules can be found in patent publication US20200087373A1 (UNIVERSITY OF COPENHAGEN, published 2020).

As usually defined, the IC50 is the concentration that inhibits the measured activity by half. A higher IC50 goes with lower potency.

Ends that are not written are not given here. * marks the point of attachment. Palmitoyl = CCCCCCCCCCCCCCCC(=O)*; Myristoyl = CCCCCCCCCCCCCC(=O)*; Lauroyl = CCCCCCCCCCCC(=O)*

The target of assay [1] is T1, human GIP receptor (human, UniProt P48546 22-466).
T1 construct: whole, on cells; also called hGIPR
T1 sequence (looked up): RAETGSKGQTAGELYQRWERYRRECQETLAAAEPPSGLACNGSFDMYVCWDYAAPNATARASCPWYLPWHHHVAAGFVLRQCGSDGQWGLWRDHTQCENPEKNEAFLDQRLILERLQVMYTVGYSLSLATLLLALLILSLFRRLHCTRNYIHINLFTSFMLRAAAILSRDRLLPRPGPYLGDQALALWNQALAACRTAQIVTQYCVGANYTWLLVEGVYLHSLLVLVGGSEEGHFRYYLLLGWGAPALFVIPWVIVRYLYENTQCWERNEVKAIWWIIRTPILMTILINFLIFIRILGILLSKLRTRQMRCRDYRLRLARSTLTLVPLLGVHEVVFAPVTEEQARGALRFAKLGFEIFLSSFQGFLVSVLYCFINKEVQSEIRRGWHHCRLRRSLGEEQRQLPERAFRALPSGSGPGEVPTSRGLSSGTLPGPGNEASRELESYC
As to the kind of experiment: 125I-hGIP competition binding, COS-7 cells expressing hGIPR.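 Further: nonspecific binding taken as radioligand bound by untransfected cells, binding buffer with or without 2% HSA.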
Experimental: (§1) After incubation, the cells were washed twice in ice-cold binding buffer (+/−2% HSA) and lysed using 200 mM NaOH with 1% SDS for 30 min. Nonspecific binding was determined as the binding of radioactive ligand to untransfected cells.

Assay [2] has as its target T1, human GIP receptor. Kind of assay: 125I-hGIP competition binding, COS-7/hGIPR, 0.1% casein.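 Further: nonspecific binding defined as radioligand binding measured on untransfected cells.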
Experimental: as §1
In assay [3] the target is T1, human GIP receptor. Kind of assay: 125I-hGIP competition binding, COS-7/hGIPR, 2% HSA.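 Further: nonspecific binding defined as radioligand binding to untransfected cells.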
Experimental: as §1
The target in assay [4] is T1, human GIP receptor. As to the kind of experiment: IC50 with 2% HSA over IC50 with 0.1% casein, 125I-hGIP competition, COS-7/hGIPR.
Experimental: as §1
Assay [5] deals with T1, human GIP receptor. Kind of assay: cell-based or functional assay.

B1: AT124 [hGIP(5-30)NH2-C16/5] (peptide)
peptide: Palmitoyl-TFISDYSIAMDKIHQQDFVNWLLAQK-NH2
SMILES: CCCCCCCCCCCCCCCC(=O)N[C@H](C(=O)N[C@@H](Cc1ccccc1)C(=O)N[C@H](C(=O)N[C@@H](CO)C(=O)N[C@@H](CC(=O)O)C(=O)N[C@@H](Cc1ccc(O)cc1)C(=O)N[C@@H](CO)C(=O)N[C@H](C(=O)N[C@@H](C)C(=O)N[C@@H](CCSC)C(=O)N[C@@H](CC(=O)O)C(=O)N[C@@H](CCCCN)C(=O)N[C@H](C(=O)N[C@@H](Cc1c[nH]cn1)C(=O)N[C@@H](CCC(N)=O)C(=O)N[C@@H](CCC(N)=O)C(=O)N[C@@H](CC(=O)O)C(=O)N[C@@H](Cc1ccccc1)C(=O)N[C@H](C(=O)N[C@@H](CC(N)=O)C(=O)N[C@@H](Cc1c[nH]c2ccccc12)C(=O)N[C@@H](CC(C)C)C(=O)N[C@@H](CC(C)C)C(=O)N[C@@H](C)C(=O)N[C@@H](CCC(N)=O)C(=O)N[C@@H](CCCCN)C(N)=O)C(C)C)[C@@H](C)CC)[C@@H](C)CC)[C@@H](C)CC)[C@@H](C)O
With B1, the IC50 in assay [1] came to 361 nM; in assay [2] it was 1590 nM; in assay [3], 8240 nM. For the same molecule, the “log IC50” value in assay [1] is -6.4 log M. The logIC50 in assay [2] was -5.8 log M; in assay [3], -5.1 log M. Further, the “Fold change HSA (2%)/Casein (0.1%)” value in assay [4] turned out to be 5.2 fold.

B2: AT116 [hGIP(3-30)NH2-C12/18] (peptide)
peptide: EGTFISDYSIAMDKIK(Lauroyl)QQDFVNWLLAQK-NH2
modifications: N-terminus assumed
SMILES: CCCCCCCCCCCC(=O)NCCCC[C@H](NC(=O)[C@@H](NC(=O)[C@H](CCCCN)NC(=O)[C@H](CC(=O)O)NC(=O)[C@H](CCSC)NC(=O)[C@H](C)NC(=O)[C@@H](NC(=O)[C@H](CO)NC(=O)[C@H](Cc1ccc(O)cc1)NC(=O)[C@H](CC(=O)O)NC(=O)[C@H](CO)NC(=O)[C@@H](NC(=O)[C@H](Cc1ccccc1)NC(=O)[C@@H](NC(=O)CNC(=O)[C@@H](N)CCC(=O)O)[C@@H](C)O)[C@@H](C)CC)[C@@H](C)CC)[C@@H](C)CC)C(=O)N[C@@H](CCC(N)=O)C(=O)N[C@@H](CCC(N)=O)C(=O)N[C@@H](CC(=O)O)C(=O)N[C@@H](Cc1ccccc1)C(=O)N[C@H](C(=O)N[C@@H](CC(N)=O)C(=O)N[C@@H](Cc1c[nH]c2ccccc12)C(=O)N[C@@H](CC(C)C)C(=O)N[C@@H](CC(C)C)C(=O)N[C@@H](C)C(=O)N[C@@H](CCC(N)=O)C(=O)N[C@@H](CCCCN)C(N)=O)C(C)C
Take B2: the IC50 was 71.2 nM in assay [1], 62 nM in assay [2] and 321 nM in assay [3]. In addition, the “log IC50” value in assay [1] is -7.1 log M. In addition, the logIC50 in assay [2] was -7.2 log M; in assay [3], -6.5 log M. For the same molecule, the “Fold change HSA (2%)/Casein (0.1%)” value in assay [4] is 5.2 fold.

B3: AT117 [hGIP(3-30)NH2[H18K]-C16/18] (peptide)
peptide: EGTFISDYSIAMDKIK(Palmitoyl)QQDFVNWLLAQK-NH2
modifications: N-terminus assumed
SMILES: CCCCCCCCCCCCCCCC(=O)NCCCC[C@H](NC(=O)[C@@H](NC(=O)[C@H](CCCCN)NC(=O)[C@H](CC(=O)O)NC(=O)[C@H](CCSC)NC(=O)[C@H](C)NC(=O)[C@@H](NC(=O)[C@H](CO)NC(=O)[C@H](Cc1ccc(O)cc1)NC(=O)[C@H](CC(=O)O)NC(=O)[C@H](CO)NC(=O)[C@@H](NC(=O)[C@H](Cc1ccccc1)NC(=O)[C@@H](NC(=O)CNC(=O)[C@@H](N)CCC(=O)O)[C@@H](C)O)[C@@H](C)CC)[C@@H](C)CC)[C@@H](C)CC)C(=O)N[C@@H](CCC(N)=O)C(=O)N[C@@H](CCC(N)=O)C(=O)N[C@@H](CC(=O)O)C(=O)N[C@@H](Cc1ccccc1)C(=O)N[C@H](C(=O)N[C@@H](CC(N)=O)C(=O)N[C@@H](Cc1c[nH]c2ccccc12)C(=O)N[C@@H](CC(C)C)C(=O)N[C@@H](CC(C)C)C(=O)N[C@@H](C)C(=O)N[C@@H](CCC(N)=O)C(=O)N[C@@H](CCCCN)C(N)=O)C(C)C
Regarding B3, in assay [1], the IC50 worked out at 292 nM and the “log IC50” value was -6.5 log M. In assay [2], this molecule gave a half-maximal inhibitory concentration (IC50) of 110 nM and a logIC50 of -7 log M. In assay [3], this molecule registered a concentration for half-maximal inhibition (IC50) of 1730 nM and a logIC50 of -5.8 log M. In addition, in assay [4], the “Fold change HSA (2%)/Casein (0.1%)” value is 15.7 fold.

B4: AT119 [hGIP(5-30)NH2-C12/16] (peptide)
peptide: TFISDYSIAMDK(Lauroyl)IHQQDFVNWLLAQK-NH2
modifications: N-terminus assumed
SMILES: CCCCCCCCCCCC(=O)NCCCC[C@H](NC(=O)[C@H](CC(=O)O)NC(=O)[C@H](CCSC)NC(=O)[C@H](C)NC(=O)[C@@H](NC(=O)[C@H](CO)NC(=O)[C@H](Cc1ccc(O)cc1)NC(=O)[C@H](CC(=O)O)NC(=O)[C@H](CO)NC(=O)[C@@H](NC(=O)[C@H](Cc1ccccc1)NC(=O)[C@@H](N)[C@@H](C)O)[C@@H](C)CC)[C@@H](C)CC)C(=O)N[C@H](C(=O)N[C@@H](Cc1c[nH]cn1)C(=O)N[C@@H](CCC(N)=O)C(=O)N[C@@H](CCC(N)=O)C(=O)N[C@@H](CC(=O)O)C(=O)N[C@@H](Cc1ccccc1)C(=O)N[C@H](C(=O)N[C@@H](CC(N)=O)C(=O)N[C@@H](Cc1c[nH]c2ccccc12)C(=O)N[C@@H](CC(C)C)C(=O)N[C@@H](CC(C)C)C(=O)N[C@@H](C)C(=O)N[C@@H](CCC(N)=O)C(=O)N[C@@H](CCCCN)C(N)=O)C(C)C)[C@@H](C)CC
With B4, in assay [1], the IC50 amounted to 194 nM and the “log IC50” value was -6.7 log M. In assay [2], the IC50 is 369 nM and the logIC50 was -6.4 log M. Further, in assay [3], the IC50 is 2660 nM and the logIC50 was -5.6 log M. For the same molecule, the “Fold change HSA (2%)/Casein (0.1%)” value in assay [4] is 7.2 fold.

B5: AT121 [hGIP(5-30)NH2-C14/5] (peptide)
peptide: Myristoyl-TFISDYSIAMDKIHQQDFVNWLLAQK-NH2
SMILES: CCCCCCCCCCCCCC(=O)N[C@H](C(=O)N[C@@H](Cc1ccccc1)C(=O)N[C@H](C(=O)N[C@@H](CO)C(=O)N[C@@H](CC(=O)O)C(=O)N[C@@H](Cc1ccc(O)cc1)C(=O)N[C@@H](CO)C(=O)N[C@H](C(=O)N[C@@H](C)C(=O)N[C@@H](CCSC)C(=O)N[C@@H](CC(=O)O)C(=O)N[C@@H](CCCCN)C(=O)N[C@H](C(=O)N[C@@H](Cc1c[nH]cn1)C(=O)N[C@@H](CCC(N)=O)C(=O)N[C@@H](CCC(N)=O)C(=O)N[C@@H](CC(=O)O)C(=O)N[C@@H](Cc1ccccc1)C(=O)N[C@H](C(=O)N[C@@H](CC(N)=O)C(=O)N[C@@H](Cc1c[nH]c2ccccc12)C(=O)N[C@@H](CC(C)C)C(=O)N[C@@H](CC(C)C)C(=O)N[C@@H](C)C(=O)N[C@@H](CCC(N)=O)C(=O)N[C@@H](CCCCN)C(N)=O)C(C)C)[C@@H](C)CC)[C@@H](C)CC)[C@@H](C)CC)[C@@H](C)O
As for B5, in assay [1], the IC50 amounted to 173 nM and the “log IC50” value is -6.8 log M. In assay [2], this molecule yielded an IC50 of 170 nM and a logIC50 of -6.8 log M. In assay [3], this molecule had an IC50 of 966 nM and a logIC50 of -6 log M. In assay [4], the “Fold change HSA (2%)/Casein (0.1%)” value worked out at 5.7 fold.

B6: AT122 [hGIP(5-30)NH2-C14/16] (peptide)
peptide: TFISDYSIAMDK(Myristoyl)IHQQDFVNWLLAQK-NH2
modifications: N-terminus assumed
SMILES: CCCCCCCCCCCCCC(=O)NCCCC[C@H](NC(=O)[C@H](CC(=O)O)NC(=O)[C@H](CCSC)NC(=O)[C@H](C)NC(=O)[C@@H](NC(=O)[C@H](CO)NC(=O)[C@H](Cc1ccc(O)cc1)NC(=O)[C@H](CC(=O)O)NC(=O)[C@H](CO)NC(=O)[C@@H](NC(=O)[C@H](Cc1ccccc1)NC(=O)[C@@H](N)[C@@H](C)O)[C@@H](C)CC)[C@@H](C)CC)C(=O)N[C@H](C(=O)N[C@@H](Cc1c[nH]cn1)C(=O)N[C@@H](CCC(N)=O)C(=O)N[C@@H](CCC(N)=O)C(=O)N[C@@H](CC(=O)O)C(=O)N[C@@H](Cc1ccccc1)C(=O)N[C@H](C(=O)N[C@@H](CC(N)=O)C(=O)N[C@@H](Cc1c[nH]c2ccccc12)C(=O)N[C@@H](CC(C)C)C(=O)N[C@@H](CC(C)C)C(=O)N[C@@H](C)C(=O)N[C@@H](CCC(N)=O)C(=O)N[C@@H](CCCCN)C(N)=O)C(C)C)[C@@H](C)CC
As for B6, in assay [1], the IC50 came to 591 nM and the “log IC50” value is -6.2 log M. Further, in assay [2], the IC50 is 1230 nM and the logIC50 was -5.9 log M. In assay [3], this molecule showed an IC50 of 6080 nM and a logIC50 of -5.2 log M. Moreover, the “Fold change HSA (2%)/Casein (0.1%)” value in assay [4] was 4.9 fold.

B7: AT168 [hGIP(5-30)NH2[F6K]-C16diacid/6] (peptide)
peptide: TKISDYSIAMDKIHQQDFVNWLLAQK
modifications: C16-diacid fatty acyl on Lys 6 (GIP numbering); C-terminal amide
As to B7, in assay [1], the IC50 was determined as 48 nM and the “log IC50” value is -7.3 log M. Besides, in assay [5], the “cAMP agonism, Emax” value was 0; the “cAMP antagonism” value turned out to be 96 nM; the “cAMP antagonism, log” value was -7 log M. In assay [2], this molecule registered an IC50 of 50.1 nM and a logIC50 of -7.3 log M. Also, in assay [3], the IC50 is 100 nM and the logIC50 is -7 log M. Further, the “Fold change HSA (2%)/Casein (0.1%)” value in assay [4] amounted to 2 fold.
